Literature values in US20250222125A1, “Anti-FGFR2b Antibodies, Conjugates and Methods of Use” (BeiGene, Ltd., priority 2024, published 2025).

Conditions: clinical trial, terminated early; cited from earlier work

B1: Aprutumab ixadotin: FGFR2 antibody conjugated to auristatin (conjugate, chains of the INN, looked up)
VH: EVQLLESGGGLVQPGGSLRLSCAASGFTFSSYAMSWVRQAPGKGLEWVSAISGSGTSTYYADSVKGRFTISRDNSKNTLYLQMNSLRAEDTAVYYCARVRYNWNHGDWFDPWGQGTLVTVSS
VL: QSVLTQPPSASGTPGQRVTISCSGSSSNIGNNYVSWYQQLPGTAPKLLIYENYNRPAGVPDRFSGSKSGTSASLAISGLRSEDEADYYCSSWDDSLNYWVFGGGTKLTVL
modifications: auristatin payload conjugate
notes: FGFR2 antibody conjugated to auristatin
tolerability in clinical testing: poorly tolerated
